Measurements reported in patent US20130344073.

Assays:
pro-factor D-His = pro-factor D-His (UniProt P00746)
ST-pro-factor D-His = ST-pro-factor D-His (UniProt P00746)

full length wild type recombinant human MASP-3, sequence (chain): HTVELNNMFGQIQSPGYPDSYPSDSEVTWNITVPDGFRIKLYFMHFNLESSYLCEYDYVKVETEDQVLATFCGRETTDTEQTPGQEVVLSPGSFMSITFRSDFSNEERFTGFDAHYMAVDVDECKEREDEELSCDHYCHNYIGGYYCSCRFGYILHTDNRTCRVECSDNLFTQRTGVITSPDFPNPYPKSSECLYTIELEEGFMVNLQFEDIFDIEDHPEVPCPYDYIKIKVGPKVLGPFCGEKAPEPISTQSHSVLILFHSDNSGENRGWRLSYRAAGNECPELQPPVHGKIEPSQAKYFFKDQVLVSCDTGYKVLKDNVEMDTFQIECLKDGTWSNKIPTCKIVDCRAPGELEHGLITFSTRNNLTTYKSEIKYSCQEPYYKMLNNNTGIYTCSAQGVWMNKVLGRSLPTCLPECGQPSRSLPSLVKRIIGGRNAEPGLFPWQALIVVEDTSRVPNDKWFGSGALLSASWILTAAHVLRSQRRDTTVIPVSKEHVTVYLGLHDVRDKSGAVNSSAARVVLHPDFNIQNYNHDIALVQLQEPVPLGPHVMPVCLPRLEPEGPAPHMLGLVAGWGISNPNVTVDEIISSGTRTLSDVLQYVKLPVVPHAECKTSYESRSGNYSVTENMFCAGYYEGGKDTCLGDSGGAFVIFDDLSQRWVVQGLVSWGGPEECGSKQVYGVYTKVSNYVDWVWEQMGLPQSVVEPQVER

| Substance | cleavage of pro-factor D (Western blot) (pro-factor D-His) | cleavage of pro-factor D (Western blot) (ST-pro-factor D-His) |
| --- | --- | --- |
| full length wild type recombinant human MASP-3 | Identical results were obtained with the pro-factor D-His6 polypeptide (not shown) | only full length MASP-3 (lane 2) and the MASP-1 CCP1-CCP2-SP) fragment (lane 5) cleaved ST-pro-factor D-His6 |
| catalytically-inactive full length MASP-3 (S679A) | The catalytically-inactive full length MASP-3 (S679A; lane 3) and MASP-1 (S646A; lane 3) failed to cleave either substrate | The catalytically-inactive full length MASP-3 (S679A; lane 3) and MASP-1 (S646A; lane 3) failed to cleave either substrate |
